Experiments:
[1] = molecular target: T1, (DocS)3 (Acetivibrio thermocellus, UniProt A3DH67); assay: Coh2/DocS-based STIF protein sensor for cytosolic (DocS)3; conditions: different amounts of pSL244, 48 h
T1 sequence (A3DH67 with tags, fused parts or gaps): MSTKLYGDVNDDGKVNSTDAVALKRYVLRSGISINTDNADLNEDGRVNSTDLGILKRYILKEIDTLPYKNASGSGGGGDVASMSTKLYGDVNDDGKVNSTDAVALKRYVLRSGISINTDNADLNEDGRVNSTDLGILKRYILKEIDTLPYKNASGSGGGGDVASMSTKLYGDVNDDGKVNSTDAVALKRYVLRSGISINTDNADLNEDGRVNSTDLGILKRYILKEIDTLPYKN

[2] = test system: nNS3; conditions: different amounts of overexpressed nNS3, 48 h
[3] = test system: endogenous RNA (GAPDH); assay: RIP-qPCR: endogenous RNA binding of PABP- and NSP3-fusion proteins; design: species or system human; conditions: 3×FLAG-tagged L7Ae-NSP3 vs PABP-L7Ae, 48 h
Source text: RNA immunoprecipitation (RIP)-qPCR.

[4] = test system: STIF-specific target gene mRNA; assay: Translational regulation by constitutive bipartite STIF reconstitution (SEAP, NanoLuc) in HEK-293 cells; format: cell-based, human; conditions: 48 h
Source text: FIG. 8. Translational regulation by spontaneous assembly of bipartite STIFs. (A) Translational regulation through constitutive STIF reconstitution. […] Transfection of pcDNA3.1 (+) instead of NSP3-fusion proteins was used as a negative control. […] (B) Compatibility of STIF-mediated translational regulation with split-complementation approaches. […] For (−) conditions, pcDNA3.1 (+) was transfected instead of expression vectors.
FIG. 9. Translational regulation through constitutive Coh2/DocS-mediated STIF reconstitution. (A) Site-specific translational activation by eIFBP overexpression. HEK-293 cells were (co-) transfected with an expression vector for SEAP-mRNA containing 24 tandem C/D-box-(left panel, pSL355) or MS2-box repeats in the 3′-UTR (right panel, pSL468), constitutive expression vectors for L7Ae (left) or MCP (right) fused to Coh2 (L7Ae-Coh2, pSL83; MCP-Coh2, pSL674) or EGFP (L7Ae-EGFP, pSL1078; MCP-EGFP, pSL435) and constitutive expression vectors for various chimeric Coh2-specific DocS-containing eIFBP fusions (PABP-DocS, pSL47; DocS-eIF4G, pSL87; DocS-eIF4E, pLZ312; DocS-NSP3, pSL66; DocS-VPg, pLZ311). Transfection of pcDNA3.1 (+) instead of DocS- or MCP-expressing vectors was used as a negative control. […] SEAP (left) and NanoLuc levels in culture supernatants (right) were quantified at 48 h post-transfection. […]

[5] = test system: BCR-ABL; assay: Co-immunoprecipitation: BCR-ABL-mediated association of STIF components; format: binding, human; conditions: HEK-293 cells, 48 h
[6] = test system: GNCR: NS3a system; assay: Grazoprevir-inducible SEAP translation in HEK-293 cells (fold-change, dose-dependence, kinetics vs transcriptional switch); conditions: three tandem GNCR and NS3a repeats
Source text: Optimization of an L7Ae-based grazoprevir-inducible gene switch. (A) Translational regulation by grazoprevir-dependent STIF association. […] (B) Translational regulation by different grazoprevir-dependent NSP3-fusion proteins. […] (C) Translational regulation by different grazoprevir-dependent L7Ae-fusion proteins.
Optimized L7Ae- and MCP-based grazoprevir-inducible gene switch in mammalian cells. (A) Optimized grazoprevir-inducible regulation of SEAP translation. […] (B, C) Dose-dependent grazoprevir-inducible SEAP expression.
Comparative analysis of gene switches based on STIF-based translation and state-of-the-art transcription-centered designs. (A) Kinetics of grazoprevir-inducible SEAP expression. […] (B) Endpoint performance of grazoprevir-induced translational and transcriptional gene switch switches.

Chain of BCR-ABL (as listed by the source): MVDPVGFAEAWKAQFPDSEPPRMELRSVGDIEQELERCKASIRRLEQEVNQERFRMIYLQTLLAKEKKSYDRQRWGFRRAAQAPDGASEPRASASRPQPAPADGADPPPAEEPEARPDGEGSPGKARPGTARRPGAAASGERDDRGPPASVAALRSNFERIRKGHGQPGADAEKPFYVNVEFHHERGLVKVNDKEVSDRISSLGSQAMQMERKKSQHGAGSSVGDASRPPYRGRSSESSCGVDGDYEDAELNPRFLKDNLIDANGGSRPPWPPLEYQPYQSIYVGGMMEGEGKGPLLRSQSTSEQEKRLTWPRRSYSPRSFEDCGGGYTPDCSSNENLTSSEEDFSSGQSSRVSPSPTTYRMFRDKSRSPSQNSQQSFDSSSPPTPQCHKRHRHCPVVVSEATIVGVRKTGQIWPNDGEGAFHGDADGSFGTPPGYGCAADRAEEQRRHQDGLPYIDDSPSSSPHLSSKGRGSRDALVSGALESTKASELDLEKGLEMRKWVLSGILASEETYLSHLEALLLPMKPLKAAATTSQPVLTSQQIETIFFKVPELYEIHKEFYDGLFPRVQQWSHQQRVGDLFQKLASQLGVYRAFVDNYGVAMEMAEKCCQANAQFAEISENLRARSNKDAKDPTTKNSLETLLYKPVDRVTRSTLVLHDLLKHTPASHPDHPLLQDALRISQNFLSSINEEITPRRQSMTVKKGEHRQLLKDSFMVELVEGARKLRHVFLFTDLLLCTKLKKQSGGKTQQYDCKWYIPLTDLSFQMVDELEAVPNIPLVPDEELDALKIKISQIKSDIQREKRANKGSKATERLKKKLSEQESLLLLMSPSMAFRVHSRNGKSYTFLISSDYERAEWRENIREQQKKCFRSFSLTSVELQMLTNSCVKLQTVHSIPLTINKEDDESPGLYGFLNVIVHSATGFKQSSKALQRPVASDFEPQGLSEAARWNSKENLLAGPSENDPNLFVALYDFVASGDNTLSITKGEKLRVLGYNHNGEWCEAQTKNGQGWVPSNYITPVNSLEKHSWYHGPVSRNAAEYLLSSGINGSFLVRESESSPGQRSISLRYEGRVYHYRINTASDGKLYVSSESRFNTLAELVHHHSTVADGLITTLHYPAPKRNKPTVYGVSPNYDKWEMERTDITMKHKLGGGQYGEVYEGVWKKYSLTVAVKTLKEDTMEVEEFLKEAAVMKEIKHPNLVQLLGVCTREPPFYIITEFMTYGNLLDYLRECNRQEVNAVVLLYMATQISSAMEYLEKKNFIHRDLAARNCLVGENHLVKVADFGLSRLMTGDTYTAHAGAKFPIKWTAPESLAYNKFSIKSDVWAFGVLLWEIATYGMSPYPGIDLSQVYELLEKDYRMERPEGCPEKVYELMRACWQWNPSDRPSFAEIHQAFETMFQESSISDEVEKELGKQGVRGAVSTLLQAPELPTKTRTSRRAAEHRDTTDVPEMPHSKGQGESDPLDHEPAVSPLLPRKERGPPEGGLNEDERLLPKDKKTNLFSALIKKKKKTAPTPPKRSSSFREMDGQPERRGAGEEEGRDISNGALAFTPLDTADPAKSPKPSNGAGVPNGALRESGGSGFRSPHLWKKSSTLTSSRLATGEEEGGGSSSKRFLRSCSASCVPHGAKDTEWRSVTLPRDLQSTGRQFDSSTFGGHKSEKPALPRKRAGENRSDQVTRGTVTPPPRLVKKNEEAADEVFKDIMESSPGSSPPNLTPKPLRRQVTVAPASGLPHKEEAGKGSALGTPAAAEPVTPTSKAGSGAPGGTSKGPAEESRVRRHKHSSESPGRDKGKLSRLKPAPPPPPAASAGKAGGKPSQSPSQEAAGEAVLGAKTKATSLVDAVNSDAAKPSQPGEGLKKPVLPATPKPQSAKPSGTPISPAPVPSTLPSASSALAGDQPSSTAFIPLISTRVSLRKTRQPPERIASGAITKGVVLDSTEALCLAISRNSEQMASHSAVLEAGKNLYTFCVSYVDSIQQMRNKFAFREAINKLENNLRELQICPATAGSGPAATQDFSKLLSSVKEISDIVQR

B1: (Coh2)3-NSP3: bipartite STIF regulator (protein)
chain: MVVVEIGKVTGSVGTTVEIPVYFRGVPSKGIANCDFVFRYDPNVLEIIGIDPGDIIVDPNPTKSFDTAIYPDRKIIVFLFAEDSGTGAYAITKDGVFAKIRATVKSSAPGYITFDEVGGFADNDLVEQKVSFIDGGVNVASGSGGGGDVASVVVEIGKVTGSVGTTVEIPVYFRGVPSKGIANCDFVFRYDPNVLEIIGIDPGDIIVDPNPTKSFDTAIYPDRKIIVFLFAEDSGTGAYAITKDGVFAKIRATVKSSAPGYITFDEVGGFADNDLVEQKVSFIDGGVNVASGSGGGGDVASVVVEIGKVTGSVGTTVEIPVYFRGVPSKGIANCDFVFRYDPNVLEIIGIDPGDIIVDPNPTKSFDTAIYPDRKIIVFLFAEDSGTGAYAITKDGVFAKIRATVKSSAPGYITFDEVGGFADNDLVEQKVSFIDGGVNVASGSGGGGDVASMLKMESTQQMASSIINTSFEAAVVAATSTLELMGIQYDYNEVYTRVKSKFDYVMDDSGVKNNLLGKAATIDQALNGKFGSAARNRNWMADTRTTARLDEDVNKLRMMLSSKGIDQKMRVLNACFNVKRVPGKSSSIIKCTRLMRDKIERGEVEVDDSFVEEKMEVDTIDWKSRYEQLEKRFESLKQRVNEKYTSWVQKAKKVNENMYSLQNVISQQQSQIADLQNYCNKLEVDLQNKISSLVSSVEWYLKSMELPDEIKTDIEQQLNSIDVINPINAIDDFESLIRNIILDYDRIFLMFKGLMRQCNYEYTYE
detection of cytosolic (DocS)3 (SEAP) [1]: in a dose-dependent manner

B2: (scFv162)3-NSP3: bipartite STIF regulator (protein)
chain: MAEVQVQQSGAELVRSGASVKLSCTASGFNIKDYYMHWVKQRPEQGLEWIGWIDPANGNTKYDPKFQGKATITADTSSNTAYLQLSSLTSEDTAVYYCARWDWYFDVWGAGTTVTVSSGGGGSGGGGSGGGGSVFASGSGGGGDVASMAEVQVQQSGAELVRSGASVKLSCTASGFNIKDYYMHWVKQRPEQGLEWIGWIDPANGNTKYDPKFQGKATITADTSSNTAYLQLSSLTSEDTAVYYCARWDWYFDVWGAGTTVTVSSGGGGSGGGGSGGGGSVFASGSGGGGDVASMAEVQVQQSGAELVRSGASVKLSCTASGFNIKDYYMHWVKQRPEQGLEWIGWIDPANGNTKYDPKFQGKATITADTSSNTAYLQLSSLTSEDTAVYYCARWDWYFDVWGAGTTVTVSSGGGGSGGGGSGGGGSVFASGSGGGGDVASMLKMESTQQMASSIINTSFEAAVVAATSTLELMGIQYDYNEVYTRVKSKFDYVMDDSGVKNNLLGKAATIDQALNGKFGSAARNRNWMADTRTTARLDEDVNKLRMMLSSKGIDQKMRVLNACFNVKRVPGKSSSIIKCTRLMRDKIERGEVEVDDSFVEEKMEVDTIDWKSRYEQLEKRFESLKQRVNEKYTSWVQKAKKVNENMYSLQNVISQQQSQIADLQNYCNKLEVDLQNKISSLVSSVEWYLKSMELPDEIKTDIEQQLNSIDVINPINAIDDFESLIRNIILDYDRIFLMFKGLMRQCNYEYTYE
activation of translation of L7Ae-specific target mRNA (SEAP) [2]: in a strict nNS3-dependent manner

B3: NSP3: rotaviral non-structural protein 3 (protein)
chain: LKMESTQQMASSIINTSFEAAVVAATSTLELMGIQYDYNEVYTRVKSKFDYVMDDSGVKNNLLGKAATIDQALNGKFGSAARNRNWMADTRTTARLDEDVNKLRMMLSSKGIDQKMRVLNACFNVKRVPGKSSSIIKCTRLMRDKIERGEVEVDDSFVEEKMEVDTIDWKSRYEQLEKRFESLKQRVNEKYTSWVQKAKKVNENMYSLQNVISQQQSQIADLQNYCNKLEVDLQNKISSLVSSVEWYLKSMELPDEIKTDIEQQLNSIDVINPINAIDDFESLIRNIILDYDRIFLMFKGLMRQCNYEYTYE
non-specific binding to endogenous RNA (GAPDH RNA IP/input) [3]: much less non-specific binding to endogenous RNA than PABP

B4: (DocS)3-NSP3: bipartite STIF regulator (protein)
chain: MSTKLYGDVNDDGKVNSTDAVALKRYVLRSGISINTDNADLNEDGRVNSTDLGILKRYILKEIDTLPYKNASGSGGGGDVASMSTKLYGDVNDDGKVNSTDAVALKRYVLRSGISINTDNADLNEDGRVNSTDLGILKRYILKEIDTLPYKNASGSGGGGDVASMSTKLYGDVNDDGKVNSTDAVALKRYVLRSGISINTDNADLNEDGRVNSTDLGILKRYILKEIDTLPYKNASGSGGGGDVASMLKMESTQQMASSIINTSFEAAVVAATSTLELMGIQYDYNEVYTRVKSKFDYVMDDSGVKNNLLGKAATIDQALNGKFGSAARNRNWMADTRTTARLDEDVNKLRMMLSSKGIDQKMRVLNACFNVKRVPGKSSSIIKCTRLMRDKIERGEVEVDDSFVEEKMEVDTIDWKSRYEQLEKRFESLKQRVNEKYTSWVQKAKKVNENMYSLQNVISQQQSQIADLQNYCNKLEVDLQNKISSLVSSVEWYLKSMELPDEIKTDIEQQLNSIDVINPINAIDDFESLIRNIILDYDRIFLMFKGLMRQCNYEYTYE
target gene translation by spontaneous STIF assembly (SEAP) [4]: modular and effective translational regulation

B5: CCmut3-NSP3: bipartite STIF regulator (protein)
chain: MVDPVGFAEAWKAQFPDSEPPRMELRSVGDIEQELERAEARIRRNEQRVNQERFRMIYLETLLAKEKKSYDRASGSGGGGDVASMLKMESTQQMASSIINTSFEAAVVAATSTLELMGIQYDYNEVYTRVKSKFDYVMDDSGVKNNLLGKAATIDQALNGKFGSAARNRNWMADTRTTARLDEDVNKLRMMLSSKGIDQKMRVLNACFNVKRVPGKSSSIIKCTRLMRDKIERGEVEVDDSFVEEKMEVDTIDWKSRYEQLEKRFESLKQRVNEKYTSWVQKAKKVNENMYSLQNVISQQQSQIADLQNYCNKLEVDLQNKISSLVSSVEWYLKSMELPDEIKTDIEQQLNSIDVINPINAIDDFESLIRNIILDYDRIFLMFKGLMRQCNYEYTYE
assembly of STIF components upon BCR-ABL overexpression (co-IP) [5]: triggers assembly

B6: (GNCR)3-NSP3: trigger-inducible STIF regulator (protein)
chain: MDIEKLCKKAEEEAKEAQEKADELRQRHPDSQAAEDAEDLANLAVAAVLTACLLAQEHPNADIAKLCIKAASEAAEAASKAAELAQRHPDSQAARDAIKLASQAARAVILAIMLAAENPNADIAKLCIKAASEAAEAASKAAELAQRHPDSQAARDAIKLASQAAEAVERAIWLAAENPNADIAKKCIKAASEAAEEASKAAEEAQRHPDSQKARDEIKEASQKAEEVKERCKSASGSGGGGDVASDIEKLCKKAEEEAKEAQEKADELRQRHPDSQAAEDAEDLANLAVAAVLTACLLAQEHPNADIAKLCIKAASEAAEAASKAAELAQRHPDSQAARDAIKLASQAARAVILAIMLAAENPNADIAKLCIKAASEAAEAASKAAELAQRHPDSQAARDAIKLASQAAEAVERAIWLAAENPNADIAKKCIKAASEAAEEASKAAEEAQRHPDSQKARDEIKEASQKAEEVKERCKSASGSGGGGDVASDIEKLCKKAEEEAKEAQEKADELRQRHPDSQAAEDAEDLANLAVAAVLTACLLAQEHPNADIAKLCIKAASEAAEAASKAAELAQRHPDSQAARDAIKLASQAARAVILAIMLAAENPNADIAKLCIKAASEAAEAASKAAELAQRHPDSQAARDAIKLASQAAEAVERAIWLAAENPNADIAKKCIKAASEAAEEASKAAEEAQRHPDSQKARDEIKEASQKAEEVKERCKSASGSGGGGDVASMLKMESTQQMASSIINTSFEAAVVAATSTLELMGIQYDYNEVYTRVKSKFDYVMDDSGVKNNLLGKAATIDQALNGKFGSAARNRNWMADTRTTARLDEDVNKLRMMLSSKGIDQKMRVLNACFNVKRVPGKSSSIIKCTRLMRDKIERGEVEVDDSFVEEKMEVDTIDWKSRYEQLEKRFESLKQRVNEKYTSWVQKAKKVNENMYSLQNVISQQQSQIADLQNYCNKLEVDLQNKISSLVSSVEWYLKSMELPDEIKTDIEQQLNSIDVINPINAIDDFESLIRNIILDYDRIFLMFKGLMRQCNYEYTYE
regulation performance (fold-change, dose-dependence, activation kinetics) [6]: best regulation performance

Reference: US20260209789A1, “TRIGGER-INDUCIBLE MRNA CIRCULARIZATION” (WESTLAKE UNIVERSITY, priority 2022, published 2026)
